For assay [1], the target named is N8-HBx (UniProt P03165). In words: tripartite Nanoluc system (luciferase complementation). Conditions: HepG2 cells; co-transfected with a plasmid expressing Nano1-7; luciferase activity measured 48 h post-transfection; parent: 100%.
The target of assay [2] is C10-STAU1 with the RBD2 domain deleted (UniProt O95793). In words: split reporter (BiFC, NanoBiT); tripartite Nanoluc luciferase: C10-tagged and N8-tagged proteins co-transfected with a plasmid expressing Nano1-7 into HepG2 cells; luciferase activity measured 48 h post-transfection.
The target in assay [3] is C10-DDB1 (UniProt Q16531). Put plainly: tripartite Nanoluc system (luciferase complementation). To be noted: HepG2 cells; co-transfected with a plasmid expressing Nano1-7; luciferase activity measured 48 h post-transfection; parent: 100%.
Sequence of C10-DDB1 (Q16531 whole entry): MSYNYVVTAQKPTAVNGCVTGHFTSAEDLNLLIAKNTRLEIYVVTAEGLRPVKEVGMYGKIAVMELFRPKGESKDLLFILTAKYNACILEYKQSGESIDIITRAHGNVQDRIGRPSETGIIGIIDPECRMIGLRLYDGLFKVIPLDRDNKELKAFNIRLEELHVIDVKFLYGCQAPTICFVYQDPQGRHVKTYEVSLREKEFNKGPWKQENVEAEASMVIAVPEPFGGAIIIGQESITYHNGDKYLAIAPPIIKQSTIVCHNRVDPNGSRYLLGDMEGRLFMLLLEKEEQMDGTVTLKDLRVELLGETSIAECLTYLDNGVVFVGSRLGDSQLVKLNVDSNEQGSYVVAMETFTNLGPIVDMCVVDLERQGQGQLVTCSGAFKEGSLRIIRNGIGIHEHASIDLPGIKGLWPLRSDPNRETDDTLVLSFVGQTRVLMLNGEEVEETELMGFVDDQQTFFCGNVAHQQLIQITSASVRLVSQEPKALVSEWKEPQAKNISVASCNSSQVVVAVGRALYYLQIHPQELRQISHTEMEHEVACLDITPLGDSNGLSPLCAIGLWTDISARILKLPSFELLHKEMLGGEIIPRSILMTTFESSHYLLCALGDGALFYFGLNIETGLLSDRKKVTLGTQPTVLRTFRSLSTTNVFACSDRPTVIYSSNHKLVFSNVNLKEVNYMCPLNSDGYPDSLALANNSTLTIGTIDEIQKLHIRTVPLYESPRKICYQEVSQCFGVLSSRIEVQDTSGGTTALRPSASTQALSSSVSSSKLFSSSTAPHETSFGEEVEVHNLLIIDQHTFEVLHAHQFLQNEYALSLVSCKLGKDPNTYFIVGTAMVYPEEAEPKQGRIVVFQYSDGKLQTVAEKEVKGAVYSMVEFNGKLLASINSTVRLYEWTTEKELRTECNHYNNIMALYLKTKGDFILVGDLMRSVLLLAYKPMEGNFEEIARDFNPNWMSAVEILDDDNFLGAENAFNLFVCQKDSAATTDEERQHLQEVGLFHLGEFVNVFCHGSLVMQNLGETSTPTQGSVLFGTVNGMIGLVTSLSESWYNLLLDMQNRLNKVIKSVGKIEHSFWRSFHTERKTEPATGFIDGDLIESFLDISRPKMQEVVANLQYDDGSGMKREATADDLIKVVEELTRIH
Assay [4] deals with C10-DDB1M381/2. Described as above. To be noted: HepG2 cells; co-transfected with a plasmid expressing Nano1-7; luciferase activity measured 48 h post-transfection; parent: 100%.

We go through four substances from publication PMC9156947.

Consider C10-DDB1 (from UniProt Q16531) M381/2, for which the percent of parent in assay [1] was 0.68%.
In assay [2], “N8-HBx (from UniProt P03165 1-154) (natural protein)” registered a fold luminescence against wild type STAU1 of 2 fold.
In the case of N8-HBx (from UniProt P03165) 96E, the percent of parent in assay [3] stood at 0.25%.
m3; m4 HBx:96E; DDB1:M381/2: the percent of parent in assay [4] was 0.2%.
